Assay results published in publication PMC10355216, “The C-terminal tail of CSNAP attenuates the CSN complex” (Life Science Alliance, 2023).

Legend:
Assay in all cases: peptide or protein array; peptides synthesized on a microarray, incubated with recombinant CSN, probed with anti-CSN3 and HRP-conjugated secondary antibody; spot intensity normalized to C-CSNAP (A1), averaged from six arrays
[1] = molecular target: C-CSNAP peptide with a D-amino acid at Asp53 (peptide array)
[2] = molecular target: C-CSNAP peptide with a D-amino acid at Asp52 (peptide array)
[3] = molecular target: C-CSNAP peptide with a D-amino acid at Asp54 (peptide array)
[4] = molecular target: C-CSNAP peptide with a D-amino acid at Phe51 (peptide array)
[5] = molecular target: C-CSNAP peptide with a D-amino acid at Leu50 (peptide array)
[6] = molecular target: C-CSNAP peptide with a D-amino acid at Asp55 (peptide array)

Measured: increase of the array signal over the original 16AA C-CSNAP peptide

recombinant COP9 signalosome complex (CSN) (from UniProt Q13098 1-491; Q9UNS2 1-423; Q92905 1-334; Q99627 2-209; Q8WXC6 1-57)
> 20%: all assays above
